Sequences and labels used below:
T1: human CD147 His-tagged N-terminal domain (human, UniProt P35613-2 20-117)
T1 construct: also called N-terminal human CD147; EMMPRIN; not shown: His tag
T1 chain: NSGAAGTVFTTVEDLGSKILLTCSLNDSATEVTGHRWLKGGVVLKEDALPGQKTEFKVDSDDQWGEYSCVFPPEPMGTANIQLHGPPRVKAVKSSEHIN

B1: M1295 (antibody, V domains shown)
VH: QVTLKESGPVLVKPTETLTLTCTVSGFSLSTYGVGVGWIRQPPGKALEWLAHIWWDDVKRYNPALKSRLTISKDTSKSQVVLTMTNMDPVDTATYYCARLGSDYDVWFDYWGQGTLVTVSS
VL: EIVLTQSPATLSLSPGERATLSCRASKSISKYLAWYQQKPGQAPRLLIYSGSTLQSGIPARFSGSGSGTDFTLTISSLEPEDFAVYYCQQHDYPYTFGQGTKLEIK
B2: M442 (antibody, V domains shown)
VH: B1 VH with V34M, L100M
VL: B1 VL with H91Q, Y93G
B3: M460 (anti-IL-13) (antibody, V domains shown)
VH: B1 VH with V34M, L100M
VL: B1 VL
B4: M480 (antibody, V domains shown)
VH: B1 VH with V34M, L100M
VL: B1 VL with H91Q, Y93S
B5: M1375 (antibody, V domains shown)
VH: B1 VH with V34Q
VL: B1 VL
B6: 4A5 Fab (Fab, V domains shown)
VH: EVQLQQSGPELVKPGASVKISCKASGYTFTDYYMNWVKQSHGKSLEWIGGINPNNGGTSYNQKFKGKATLTVDKSSSTAYMELRSLTSEDSAVYYCARNDGYRGYAMDYWGQGTSVTVSS
VL: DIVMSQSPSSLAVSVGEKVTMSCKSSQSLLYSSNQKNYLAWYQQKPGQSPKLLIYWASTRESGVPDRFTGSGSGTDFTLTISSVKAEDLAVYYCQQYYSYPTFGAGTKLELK
notes: mouse variable domains; also called 4A5 chimera; chimeric 4A5 Fab

Where a chain is given by its changes, count along the chain named.

In the first test the target is IL-13 (Homo sapiens (Human), UniProt P35225 35-146, limits assumed). Kind of test: Biacore.
IL-13, sequence (P35225 35-146 limits assumed): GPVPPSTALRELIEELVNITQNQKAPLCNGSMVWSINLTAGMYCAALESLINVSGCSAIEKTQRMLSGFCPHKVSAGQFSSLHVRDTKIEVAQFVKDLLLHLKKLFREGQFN
The Kd is the constant that tells how readily two partners part at equilibrium. Lower therefore signals higher affinity. What is called koff is the first-order rate constant of dissociation. A low value points to a long-lived complex. A word on the kon: it is a measure of how fast the partners come together. A higher kon goes with fast association. B1 gave a Kd of 15 pM, a koff of 1.8e-05 s⁻¹ and a kon of 1.2e+06 M⁻¹ s⁻¹.

Molecule B2 showed a Kd of 40 pM, a koff of 5.3e-05 s⁻¹ and a kon of 1.32e+06 M⁻¹ s⁻¹.

As for B3, the equilibrium dissociation constant (Kd) is 8 pM, the koff came to 8e-06 s⁻¹ and the kon is 1.03e+06 M⁻¹ s⁻¹.

B4 registered a dissociation constant (Kd) of 21 pM, a koff of 3.9e-05 s⁻¹ and a kon of 1.86e+06 M⁻¹ s⁻¹.

In the case of B5, binding was characterised by a dissociation constant (Kd) of 24 pM, the koff is 2.7e-05 s⁻¹ and the association rate constant (kon) is 1.1e+06 M⁻¹ s⁻¹.

For a further test, the target named is T1, human CD147 His-tagged N-terminal domain. Kind of test: SPR, CD147 coupled to the surface. For orientation: Surface plasmon resonance follows binding to a sensor surface in real time, without labels.
The molecule B6 yielded a Kd of 120000 pM.

For the origin of these results see US20100261620A1 (published 2010).
